The values that follow come from the supplement of paper PMC9233669.

In one data set the test system is biotinyl-Phe-oxazolone. Put plainly: self-aminoacylation, catalytic enhancement (BFO) (fold over background); higher = more active; k-Seq, kA / k0A0; sequences stand for … in GGGAAUGGAUCCACAUCUACGAAUUC…UUCACUGCAGACUUGACGAAGCUG
In a few lines:
(§1)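 Each biotinyl-aminoacyl-oxazolone, at 2–1250 μM, was incubated with mutagenized RNA pools (0.43 μM) carrying a 21-nt variable region. The 50 μL reactions contained HEPES/NaCl/KCl/MgCl2/CaCl2 buffer with 5% acetonitrile at pH 6.9–7.0 and ran for 90 minutes at room temperature. After streptavidin capture, RNA was measured by qPCR in triplicate and by Illumina sequencing, and catalytic enhancement was calculated as median kA over the uncatalyzed rate from a pseudo-first-order fit of per-sequence fraction reacted.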

In another data set the test system is biotinyl-Ile-oxazolone. Briefly: self-aminoacylation, catalytic enhancement (BIO) (fold over background); higher = more active; k-Seq, kA / k0A0; sequences stand for … in GGGAAUGGAUCCACAUCUACGAAUUC…UUCACUGCAGACUUGACGAAGCUG
The procedure, abridged:
as §1

Another data set deals with biotinyl-Met-oxazolone. Put plainly: self-aminoacylation, catalytic enhancement (BMO) (fold over background); higher = more active; k-Seq, kA / k0A0; sequences stand for … in GGGAAUGGAUCCACAUCUACGAAUUC…UUCACUGCAGACUUGACGAAGCUG
The procedure, abridged: as §1

For the next data set, the system named is biotinyl-Leu-oxazolone. Briefly: self-aminoacylation, catalytic enhancement (BLO) (fold over background); higher = more active; k-Seq, kA / k0A0; sequences stand for … in GGGAAUGGAUCCACAUCUACGAAUUC…UUCACUGCAGACUUGACGAAGCUG
In a few lines:
as §1

The next data set concerns biotinyl-Val-oxazolone. Put plainly: self-aminoacylation, catalytic enhancement (BVO) (fold over background); higher = more active; k-Seq, kA / k0A0; sequences stand for … in GGGAAUGGAUCCACAUCUACGAAUUC…UUCACUGCAGACUUGACGAAGCUG
The procedure, abridged: as §1

For a further data set, the system named is biotinyl-Trp-oxazolone. Briefly: self-aminoacylation, catalytic enhancement (BWO) (fold over background); higher = more active; k-Seq, kA / k0A0; sequences stand for … in GGGAAUGGAUCCACAUCUACGAAUUC…UUCACUGCAGACUUGACGAAGCUG
In a few lines:
as §1

Variants at the floor of the assay were thinned out.

In the case of “AACUGUGCUAAUAGUCGCAAG [Fam3.1 aminoacylation ribozyme variant]”, the self-aminoacylation came to 2.41 with biotinyl-Phe-oxazolone; 2.14 in the data set with biotinyl-Ile-oxazolone; 1.81 with biotinyl-Met-oxazolone; 2.35 with biotinyl-Leu-oxazolone; 1.61 in the data set on biotinyl-Val-oxazolone; 2.34 with biotinyl-Trp-oxazolone.
As for “AACUUUGCUAAUAGCCGCAAG [Fam3.1 aminoacylation ribozyme variant]”, the self-aminoacylation stood at 2.77 in the data set with biotinyl-Phe-oxazolone; 2.25 in the data set with biotinyl-Ile-oxazolone; 2.28 in the data set on biotinyl-Met-oxazolone; 2.23 in the data set with biotinyl-Leu-oxazolone; 1.93 with biotinyl-Val-oxazolone; 2.14 in the data set with biotinyl-Trp-oxazolone.
Turning to “AACUUUGCUAAUAGUCGAAAG [Fam3.1 aminoacylation ribozyme variant]”, the self-aminoacylation in the data set on biotinyl-Phe-oxazolone was 2.63; with biotinyl-Ile-oxazolone, 2.25; in the data set on biotinyl-Met-oxazolone it was 2.31; with biotinyl-Leu-oxazolone, 2.47; with biotinyl-Val-oxazolone, 1.87; in the data set on biotinyl-Trp-oxazolone, 2.01.
As to “AACUUUGCUAAUAGUCGCAAA [Fam3.1 aminoacylation ribozyme variant]”, the self-aminoacylation worked out at 13.6 in the data set with biotinyl-Phe-oxazolone; 2.8 in the data set on biotinyl-Ile-oxazolone; 3.32 in the data set on biotinyl-Met-oxazolone; 3.39 with biotinyl-Leu-oxazolone; 2.31 with biotinyl-Val-oxazolone; 2.36 in the data set with biotinyl-Trp-oxazolone.
Regarding “AACUUUGCUAAUAGUCGUAAG [Fam3.1 aminoacylation ribozyme variant]”, the self-aminoacylation with biotinyl-Phe-oxazolone was found to be 3.97; in the data set on biotinyl-Ile-oxazolone, 1.44; in the data set on biotinyl-Met-oxazolone, 1.21; in the data set with biotinyl-Leu-oxazolone it was 1.59; in the data set with biotinyl-Val-oxazolone, 1.28; in the data set with biotinyl-Trp-oxazolone, 2.33.
For the sequence “AACUUUGCUAAUCGUCGCAAG [Fam3.1 aminoacylation ribozyme variant]”, the self-aminoacylation with biotinyl-Phe-oxazolone is 9.09; with biotinyl-Ile-oxazolone, 1.93; with biotinyl-Met-oxazolone, 2.21; in the data set with biotinyl-Leu-oxazolone, 2.66; in the data set with biotinyl-Val-oxazolone it was 1.89; in the data set on biotinyl-Trp-oxazolone it was 2.15.
For the sequence “AACUUUGCUUAUAGUCGCAAG [Fam3.1 aminoacylation ribozyme variant]”, the self-aminoacylation with biotinyl-Phe-oxazolone is 3.75; with biotinyl-Ile-oxazolone, 2.58; in the data set on biotinyl-Met-oxazolone, 3.18; in the data set on biotinyl-Leu-oxazolone, 2.98; in the data set on biotinyl-Val-oxazolone, 2.2; in the data set with biotinyl-Trp-oxazolone, 2.98.
As to “AACUUUGUUAAUAGUCGCAAG [Fam3.1 aminoacylation ribozyme variant]”, the self-aminoacylation worked out at 3.96 in the data set on biotinyl-Phe-oxazolone; 2.29 in the data set with biotinyl-Ile-oxazolone; 2.26 in the data set on biotinyl-Met-oxazolone; 2.47 with biotinyl-Leu-oxazolone; 2.06 with biotinyl-Val-oxazolone; 2.76 in the data set with biotinyl-Trp-oxazolone.
With “AAGACCCUGGUCAUCGAGUGA [Fam2.1 aminoacylation ribozyme variant]”, the self-aminoacylation was 21.6 in the data set with biotinyl-Phe-oxazolone; 4.58 in the data set on biotinyl-Ile-oxazolone; 9.05 in the data set with biotinyl-Met-oxazolone; 10.2 with biotinyl-Leu-oxazolone; 4.66 in the data set with biotinyl-Val-oxazolone; 9.36 in the data set with biotinyl-Trp-oxazolone.
“AAGAUCGCUAAUAGUCGCAAG [Fam3.1 aminoacylation ribozyme variant]”: the self-aminoacylation turned out to be 3.04 in the data set with biotinyl-Phe-oxazolone; 1.86 in the data set with biotinyl-Ile-oxazolone; 1.79 in the data set with biotinyl-Met-oxazolone; 2.08 in the data set with biotinyl-Leu-oxazolone; 1.51 with biotinyl-Val-oxazolone; 1.96 in the data set on biotinyl-Trp-oxazolone.
With “AAGAUUGCGAAUAGUCGCAAG [Fam3.1 aminoacylation ribozyme variant]”, the self-aminoacylation in the data set on biotinyl-Phe-oxazolone stood at 1.72; in the data set on biotinyl-Ile-oxazolone, 1.47; with biotinyl-Met-oxazolone, 1.17; in the data set with biotinyl-Leu-oxazolone, 1.33; in the data set with biotinyl-Val-oxazolone, 1.71; in the data set with biotinyl-Trp-oxazolone, 2.46.
With “AAGAUUGCUAAGAGUCGCAAG [Fam3.1 aminoacylation ribozyme variant]”, the self-aminoacylation in the data set on biotinyl-Phe-oxazolone turned out to be 1.73; in the data set with biotinyl-Ile-oxazolone it was 1.41; in the data set with biotinyl-Met-oxazolone, 1.41; in the data set on biotinyl-Leu-oxazolone, 1.3; with biotinyl-Val-oxazolone, 1.29; in the data set with biotinyl-Trp-oxazolone it was 2.56.
In the case of “AAGAUUGCUAAUAGUCUCAAG [Fam3.1 aminoacylation ribozyme variant]”, the self-aminoacylation in the data set with biotinyl-Phe-oxazolone was 1.48; in the data set with biotinyl-Ile-oxazolone, 1.1; in the data set with biotinyl-Met-oxazolone it was 0.751; with biotinyl-Leu-oxazolone, 1.09; in the data set with biotinyl-Val-oxazolone, 1.08; with biotinyl-Trp-oxazolone, 1.18.
Turning to “AAGAUUGCUACUAGUCGCAAG [Fam3.1 aminoacylation ribozyme variant]”, the self-aminoacylation in the data set with biotinyl-Phe-oxazolone stood at 2.44; in the data set on biotinyl-Ile-oxazolone, 1.55; in the data set with biotinyl-Met-oxazolone, 1.27; in the data set on biotinyl-Leu-oxazolone, 1.73; with biotinyl-Val-oxazolone, 1.32; in the data set on biotinyl-Trp-oxazolone it was 1.98.
As to “AAGAUUUCUAAUAGUCGCAAG [Fam3.1 aminoacylation ribozyme variant]”, the self-aminoacylation in the data set on biotinyl-Phe-oxazolone worked out at 3.12; with biotinyl-Ile-oxazolone, 1.81; in the data set on biotinyl-Met-oxazolone, 1.71; in the data set with biotinyl-Leu-oxazolone it was 1.49; in the data set on biotinyl-Val-oxazolone, 1.45; in the data set on biotinyl-Trp-oxazolone, 2.17.
Consider “AAGCCUGCUAAUAGUCGCAAG [Fam3.1 aminoacylation ribozyme variant]”, for which the self-aminoacylation is 37.3 in the data set on biotinyl-Phe-oxazolone; 1.86 in the data set with biotinyl-Ile-oxazolone; 1.61 in the data set on biotinyl-Met-oxazolone; 1.64 in the data set with biotinyl-Leu-oxazolone; 1.77 in the data set with biotinyl-Val-oxazolone; 11.1 with biotinyl-Trp-oxazolone.
With “AAGCUUGCCAAUAGUCGCAAG [Fam3.1 aminoacylation ribozyme variant]”, the self-aminoacylation with biotinyl-Phe-oxazolone stood at 3.44; in the data set on biotinyl-Ile-oxazolone, 2.31; in the data set with biotinyl-Met-oxazolone, 2.48; in the data set with biotinyl-Leu-oxazolone it was 2.23; in the data set on biotinyl-Val-oxazolone it was 2.42; with biotinyl-Trp-oxazolone, 3.62.
For “AAGCUUGCUAAUAGUCACAAG [Fam3.1 aminoacylation ribozyme variant]”, the self-aminoacylation with biotinyl-Phe-oxazolone stood at 4.35; with biotinyl-Ile-oxazolone it was 1.64; in the data set with biotinyl-Met-oxazolone, 1.5; with biotinyl-Leu-oxazolone it was 1.65; in the data set on biotinyl-Val-oxazolone it was 1.35; with biotinyl-Trp-oxazolone, 1.28.
In the case of “AAGGUUCCUAAUAGUCGCAAG [Fam3.1 aminoacylation ribozyme variant]”, the self-aminoacylation was found to be 1.62 with biotinyl-Phe-oxazolone; 1.61 with biotinyl-Ile-oxazolone; 1.64 with biotinyl-Met-oxazolone; 1.5 with biotinyl-Leu-oxazolone; 1.39 in the data set with biotinyl-Val-oxazolone; 1.43 with biotinyl-Trp-oxazolone.
In the case of “AAGGUUGCAAAUAGUCGCAAG [Fam3.1 aminoacylation ribozyme variant]”, the self-aminoacylation came to 1.44 in the data set on biotinyl-Phe-oxazolone; 1.41 in the data set on biotinyl-Ile-oxazolone; 1.02 with biotinyl-Met-oxazolone; 1.2 with biotinyl-Leu-oxazolone; 1.08 in the data set with biotinyl-Val-oxazolone; 1.66 in the data set on biotinyl-Trp-oxazolone.
In the case of “AAGGUUGCUAAUAAUCGCAAG [Fam3.1 aminoacylation ribozyme variant]”, the self-aminoacylation with biotinyl-Phe-oxazolone was 1.47; in the data set with biotinyl-Ile-oxazolone, 1.41; with biotinyl-Met-oxazolone, 1.11; with biotinyl-Leu-oxazolone, 1.19; in the data set with biotinyl-Val-oxazolone it was 1.02; in the data set with biotinyl-Trp-oxazolone, 1.59.
As for “AAGGUUGCUAAUAGUCGAAAG [Fam3.1 aminoacylation ribozyme variant]”, the self-aminoacylation in the data set with biotinyl-Phe-oxazolone worked out at 6.22; with biotinyl-Ile-oxazolone, 1.51; in the data set with biotinyl-Met-oxazolone, 1.36; in the data set on biotinyl-Leu-oxazolone, 0.938; in the data set with biotinyl-Val-oxazolone, 1.44; in the data set on biotinyl-Trp-oxazolone it was 2.33.
With “AAGGUUGCUAAUAGUCGCAAA [Fam3.1 aminoacylation ribozyme variant]”, the self-aminoacylation is 1.51 in the data set on biotinyl-Phe-oxazolone; 1.86 in the data set on biotinyl-Ile-oxazolone; 1.28 with biotinyl-Met-oxazolone; 1.63 in the data set with biotinyl-Leu-oxazolone; 1.42 in the data set with biotinyl-Val-oxazolone; 1.4 in the data set on biotinyl-Trp-oxazolone.
Consider “AAGGUUGCUAAUAGUCGCAAU [Fam3.1 aminoacylation ribozyme variant]”, for which the self-aminoacylation with biotinyl-Phe-oxazolone came to 3.18; with biotinyl-Ile-oxazolone it was 1.99; in the data set on biotinyl-Met-oxazolone, 1.81; with biotinyl-Leu-oxazolone, 1.68; in the data set on biotinyl-Val-oxazolone, 1.46; in the data set on biotinyl-Trp-oxazolone, 1.61.
Regarding “AAGGUUGCUAAUAGUGGCAAG [Fam3.1 aminoacylation ribozyme variant]”, the self-aminoacylation with biotinyl-Phe-oxazolone was 0.712; with biotinyl-Ile-oxazolone, 0.698; in the data set on biotinyl-Met-oxazolone, 0.863; with biotinyl-Leu-oxazolone it was 0.977; in the data set with biotinyl-Val-oxazolone it was 0.79; in the data set with biotinyl-Trp-oxazolone, 0.638.
